Experiments:
[1] = test system: stroke (focal cerebral ischemia and reperfusion); conditions: for postischemic cerebral perfusion (cerebral blood flow): laser Doppler, ischemic vs nonischemic hemisphere; for cerebral infarct volume: preoperatively administered, CD39 4 and 8 mg/kg, aspirin 5 mg/kg, 24 hours
murine platelets = experiment: Murine platelet aggregation (aggregometry of platelet-rich plasma from treated mice); type: cell-based; conditions: for platelet aggregation response to ADP: ADP 2.5 or 10 μM, CD39 4 mg/kg, aspirin 5 mg/kg; for platelet aggregation response to ADP / platelet aggregation response to collagen / platelet aggregation response to sodium arachidonate: agent given to mice 45 minutes prior to harvest of blood; for platelet aggregation response to collagen: collagen 2.5 or 10 μg/mL; for platelet aggregation response to sodium arachidonate: sodium arachidonate 0.1 mM
Method: Preparation of Murine Platelets: Mice (untreated, treated with 4 mg/kg CD39, or treated with […]) were anesthetized and heparinized (10 U/g), prior to blood collection via cardiac puncture performed with 22 gauge, 1 cc syringe. Immediately following collection, 80 μl 3.8% trisodium citrate was added to each mL of blood. Blood from 6-8 mice was pooled in a 15 mL tube centrifuge tube (Flacon, polypropylene). Platelet-rich plasma (PRP) was prepared with an initial whole blood centrifugation (900 g, 3 min, 20° C., no brake), and a second centrifugation of PRP (100 g, 2 min) to eliminate residual erythrocytes and leukocytes. The stock suspension of PRP was maintained at room temperature. PRP platelet counts were 400-700×10^3 platelets per μl.
Platelet aggregation studies: PRP (200 μl) was pre-incubated (3 min, 37° C.) with 100 μl Tris-buffered saline (TSG) buffer (15 mM Tris, 134 mM NaCl, 5 mM glucose, pH 7.4) in an aggregometer cuvette (Lumiaggregometer; Chrono-Log, Havertown, Pa.). After the 3 min, 37° C. preincubation ≈5.0 C 10^5 platelets, platelet agonist (ADP, collagen, sodium arachidonate) were added at the concentration indicated. Total volumes were adjusted to 300 μl with TSG buffer, and the aggregation response recorded for 2-4 min. Agonists were prepared as 100× solution: ADP was in TSG buffer, collagen in acidified isotonic glucose ([…], Munchen, Germany), and sodium arachidonate in 0.85% saline. All aggregation studies were completed within two hours of blood collection.
Quantitation of Platelet Aggregation: Area under the curve was estimated by multiplying the height of the curve with its width at half height. The former was measured form pre-simulation baseline to the middle of the highest point of the curve. However, when curves were less than ⅓ of maximal height, the lowest point of the shape change portion of the curve was considered baseline. […] These criteria underestimate large aggregation responses, and overestimate small ones. Thus we knowingly underestimated the effects of compounds with great inhibitory capacity. This approach was preferred over one that could have overemphasized inhibitory potential.
Murine platelet aggregation: C57/6J BL mice (6-8 weeks) were obtained from Jackson Laboratories, Bar Harbor, Me.). Untreated mice, and mice treated with 4 mg/kg CD39, with 5 mg/kg aspirin or phosphate buffered saline, were anesthetized and heparinized (10 U/g), prior to blood collection via cardiac puncture; 80 μL 3.8% trisodium citrate was added to each mL of blood. Samples from 6-8 mice were pooled and platelet-rich plasma (PRP) prepared by centrifugation (900 g, 3 min, 20° C., followed by 100 g, 2 min to eliminate residual erythrocytes and leukocytes). PRP contained 400-700×10^3 platelets per μL. PRP (200 μL) was preincubated (3 min, 37° C.) with 100 μL Tris-buffered saline (TSG) buffer (15 mM Tris, 134 mM NaCl, 5 mM glucose, pH 7.4)^11,23,24 in an aggregometer cuvette (Lumiaggregometer; Chrono-Log, Havertown, Pa.). Platelet agonists (ADP, collagen (Hormon Chemie, Munchen, Germany), or sodium arachidonate (Nu-Check Prep, Elysian, Minn.)) were added at the final concentrations indicated. Aggregation responses were recorded for 2-4 min, and expressed as area under the curve (height times width at ½ height). All experiments were completed within two hours of blood collection.

[2] = Measurement of bleeding time (tail vein incision); type: in vivo; conditions: mice not subjected to other manipulation; intravenous
Method: Measurement of Bleeding Time: Bleeding times were measured in mice which were not subjected to experimental manipulation other than by receiving either vehicle (saline) or CD39 prepared in physiological saline and administered intravenously 5 minutes prior to the experiment. Following anesthesia, a standardized incision was made on the central dorsal tail vein, and the tail was then immersed in physiological saline at 37.5° C.

platelets = conditions: cited from earlier work
[3] = cited from earlier work
[4] = peptide affinity purified from CHO conditioned medium; cited from earlier work
[5] = test system: lung ischemia and reperfusion; experiment: Mouse model of lung ischemia and reperfusion; type: in vivo, mice; conditions: CD39 8 mg/kg; 1 hour ischemia, 2 hour reperfusion, observation 1 hour; four experiments
Method: In these studies, murine ischemic reperfusion model was used. In the mouse model of lung ischemia, mice were initially anesthetized intraperitoneal with 0.1 mg/mouse weight (g) of ketamine and 0.01 mg/mouse weight (g) of xylazine, following by intraperitoneal continuous infusion of one third of the initial dose per hour using a syringe pump (model 100 series, KD Scientific Inc. Mass.). After ensuring appropriate depth of anesthesia, mice were intubated via tracheostomy and placed on a Harvard ventilator (tidal volume=0.75 mL, respiratory rate=120/min) with room air, followed by bilateral thoracotomy. The left hilum was cross-clamped for a period of 1 hour after which the cross-clamp was released. Reperfusion proceeded for 2 hours.
For all experiments, the surgical operator was blinded by a colleague in the laboratory to the specific substance being injected (vehicle or CD39, 8 mg/kg). Experimental procedures were as follows. […]

[6] = treatment either prior to, or up to 3 hours following stroke
[7] = control, CD39-/- and reconstituted CD39-/- mice

Molecule: CC(=O)Oc1ccccc1C(=O)O [aspirin, reference compound]
- postischemic cerebral perfusion (cerebral blood flow) [1]: did not improve
- cerebral infarct volume [1]: tendency to decrease cerebral infarct volume, the effect was not statistically significant
- platelet aggregation response to ADP (murine platelets): strongly aggregated
- platelet reactivity to collagen at any collagen dose (murine platelets; any collagen dose): little effect
- platelet aggregation response to collagen (murine platelets): strongly aggregated
- platelet aggregation response to sodium arachidonate (murine platelets): abrogated
- bleeding time [2]: markedly increased

B1: CD39: recombinant soluble CD39 (SEQ ID NO:2): four apyrase domains, lacking the two transmembrane regions, IL-2 leader, expressed in CHO cells (protein, listed as Homo sapiens)
chain: TQNKALPENVKYGIVLDAGSSHTSLYIYKWPAEKENDTGVVHQVEECRVKGPGISKFVQKVNEIGIYLTDCMERAREVIPRSQHQETPVYLGATAGMRLLRMESEELADRVLDVVERSLSNYPFDFQGARIITGQEEGAYGWITINYLLGKFSQKTRWFSIVPYETNNQETFGALDLGGASTQVTFVPQNQTIESPDNALQFRLYGKDYNVYTHSFLCYGKDQALWQKLAKDIQVASNEILRDPCFHPGYKKVVNVSDLYKTPCTKRFEMTLPFQQFEIQGIGNYQQCHQSILELFNTSYCPYSQCAFNGIFLPPLQGDFGAFSAFYFVMKFLNLTSEKVSQEKVTEMMKKFCAQPWEEIKTSYAGVKEKYLSEYCFSGTYILSLLLQGYHFTADSWEHIHFIGKIQGSDAGWTLGYMLNLTNMIPAEQPLSTPLSHST
- ADP-induced platelet aggregation in vitro (platelets): blocked
- cerebroprotection ([1]; administered three hours after onset of stroke (8 mg/kg)): significant cerebroprotection
- platelet accumulation in the ipsilateral cerebral hemisphere ([1]; intravenously injected, 111In-labeled platelets, 24 hours of reperfusion): inhibited
- fibrin accumulation in the ipsilateral cerebral hemisphere ([1]; intravenously injected, fibrin immunoblot): inhibited
- postischemic cerebral perfusion (cerebral blood flow) [1]: improved
- intracerebral hemorrhage ([1]; mouse, in vivo): without an increase
- cerebral infarct volume [1]: dose-dependent diminution
- mortality [1, 6]: reduced
- neurological deficit [1, 6]: reduced
- elimination half-time in mice [3]: 2 days
- platelet aggregation response to ADP (murine platelets): completely abrogated
- platelet aggregation response to collagen (murine platelets): attenuated
- platelet reactivity to higher doses of collagen (murine platelets; higher doses of collagen): do respond
- platelet reactivity to low-dose collagen (murine platelets; low-dose collagen): inhibited
- platelet aggregation response to sodium arachidonate (murine platelets): did not inhibit the initial activation phase of platelet aggregation to arachidonate, but rapidly disaggregated platelets during the initial recruitment phase
- bleeding time [2]: dose-dependent increase
- cerebral infarct volume (stroke in CD39-/- mice; CD39-/- mice reconstituted with CD39, 24 hours): markedly diminished
- intracerebral hemorrhage (stroke in CD39-/- mice; [7]): did not differ between groups
- neurological deficit scores (stroke in CD39-/- mice; [7]): did not differ between groups
- overall mortality (stroke in CD39-/- mice; [7]): did not differ between groups
- apyrase activity [4]: potent apyrase activity
- mouse survival following functional removal of the contralateral (nonischemic) lung [5]: 100%

Source: patent US6867177B2, “CD39/ECTO-adpase as a treatment for thrombotic and ischemic disorders” (The Trustees of Columbia University in the City of New York, priority 1999, dated 2005)
